Data set [1] deals with Eco15I_Ntd (N-terminal catalytic domain of Eco15I) (Escherichia coli strain 541-15). Briefly: crystal structure; sitting drop vapor diffusion at 18°C; proteins crystallised without DNA and as specific complexes with tetra-methylated GCNGC dsDNA, with Ca2+.
In data set [2] the target is NhoI (Nitrolancea hollandica). Described as above.
The next data set concerns the target T1, NhoI (UniProt I4EG67).
T1 sequence: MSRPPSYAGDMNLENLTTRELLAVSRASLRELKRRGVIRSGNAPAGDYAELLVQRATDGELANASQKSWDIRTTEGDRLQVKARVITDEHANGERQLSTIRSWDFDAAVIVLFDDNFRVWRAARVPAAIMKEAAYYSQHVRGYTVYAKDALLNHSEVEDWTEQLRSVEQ
Briefly: crystal structure; Ca2+ in active site; SPR: 20 mM HEPES pH 7.8, 50 or 150 mM KCl, 1 mM CaCl2, 1 mM DTT, 0.05% Tween-20, 25 C; EMSA: 20 mM HEPES pH 7.8, 50 mM KCl, 1 mM DTT, 1 mM CaCl2, on ice 30 min, unlabeled unmodified oligo or salmon sperm DNA competitor. The note with it: protein: recombinant; tags: 6xHis-SUMO removed by Ulp1; chain copies: 2; blunt. A general note: In EMSA bound probe runs differently from free probe, usually more slowly.

Data set [3] has as its target T2, Eco15I_Ctd (C-terminal domain of Eco15I) (UniProt A0A0L6ZWS4).
T2 sequence: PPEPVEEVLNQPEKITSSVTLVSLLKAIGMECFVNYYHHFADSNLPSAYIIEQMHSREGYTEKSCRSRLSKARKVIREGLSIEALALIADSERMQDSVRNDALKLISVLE
Briefly: SPR; 1 mM Ca2+; 50 mM KCl; SPR: 20 mM HEPES pH 7.8, 50 or 150 mM KCl, 1 mM CaCl2, 1 mM DTT, 0.05% Tween-20, 25 C; EMSA: 20 mM HEPES pH 7.8, 50 mM KCl, 1 mM DTT, 1 mM CaCl2, on ice 30 min, unlabeled unmodified oligo or salmon sperm DNA competitor. The note with it: protein: recombinant; label: 5' biotin. Background: Surface plasmon resonance follows binding to a sensor surface in real time, without labels.

Data set [4] deals with T3, Eco15I_Ntd (N-terminal catalytic domain of Eco15I) (UniProt A0A0L6ZWS4).
T3 sequence: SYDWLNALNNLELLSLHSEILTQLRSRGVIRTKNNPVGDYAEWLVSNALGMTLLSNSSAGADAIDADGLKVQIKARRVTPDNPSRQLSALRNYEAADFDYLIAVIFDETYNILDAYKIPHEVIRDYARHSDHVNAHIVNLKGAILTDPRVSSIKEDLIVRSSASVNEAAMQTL
The data set is described as above. The note with it: protein: recombinant; tags: 6xHis-SUMO removed by Ulp1; chain copies: 2; label: 5' biotin.

The target of data set [5] is T3, Eco15I_Ntd (N-terminal catalytic domain …). The data set is described as follows: crystal structure; Ca2+ in active site; SPR: 20 mM HEPES pH 7.8, 50 or 150 mM KCl, 1 mM CaCl2, 1 mM DTT, 0.05% Tween-20, 25 C; EMSA: 20 mM HEPES pH 7.8, 50 mM KCl, 1 mM DTT, 1 mM CaCl2, on ice 30 min, unlabeled unmodified oligo or salmon sperm DNA competitor. The following applies: protein: recombinant; tags: 6xHis-SUMO removed by Ulp1; chain copies: 2; blunt.

The term stoichiometry N denotes the number of molecules, sites or subunits per partner or assembly.

The molecule “Eco15I_Ntd (N-terminal catalytic domain of Eco15I) (domain or fragment)” displayed a stoichiometry N in data set [1] of 2.
On to NhoI (enzyme), for which the stoichiometry N in data set [2] came to 2.

B1: NhoI co-crystal duplex, tetramethylated GCAGC (dsDNA)
DNA 1: CTGCAGCTC
DNA 2: GAGCTGCAG
modifications: 5mC at positions 4 and 7 of strand 1; 5mC at positions 4 and 7 of strand 2
For B1, the binding result in the data set with NhoI is recorded as “binds”.

B2: SPR duplex, four 5mC in GCNGC (dsDNA)
DNA 1: CGGTTGAGCAGCACCTCAGA
DNA 2: TCTGAGGTGCTGCTCAACCG
modifications: 5mC at both internal and both external cytosines
Take B2: the binding result in data set [3] was “no binding”; in data set [4], “binds”.

B3: Eco15I_Ntd co-crystal duplex, tetramethylated GCAGC (dsDNA)
DNA 1: AAGCAGCAA
DNA 2: TTGCTGCTT
modifications: 5mC at positions 4 and 7 of strand 1; 5mC at positions 4 and 7 of strand 2
B3: the binding result in data set [5] is recorded as “binds”.
